B1: SMAD4: OGT overexpression (protein)
parent chain: MDNMSITNTPTSNDACLSIVHSLMCHRQGGESETFAKRAIESLVKKLKEKKDELDSLITAITTNGAHPSKCVTIQRTLDGRLQVAGRKGFPHVIYARLWRWPDLHKNELKHVKYCQYAFDLKCDSVCVNPYHYERVVSPGIDLSGLTLQSNAPSSMMVKDEYVHDFEGQPSLSTEGHSIQTIQHPPSNRASTETYSTPALLAPSESNATSTANFPNIPVASTSQPASILGGSHSEGLLQIASGPQPGQQQNGFTGQPATYHHNSTTTWTGSRTAPYTPNLPHHQNGHLQHHPPMPPHPGHYWPVHNELAFQPPISNHPAPEYWCSIAYFEMDVQVGETFKVPSSCPIVTVDGYVDPSGGDRFCLGQLSNVHRTEAIERARLHIGKGVQLECKGEGDVWVRCLSDHAVFVQSYYLDREAGRAPGDAVHKIYPSAYIKVFDLRQCHRQMQQQAATAQAAAAAQAAAVAGNIPGPGSVGGIAPAISLSAAAGIGVDDLRRLCILRMSFVKGWGPDYPRQSIKETPCWIEIHLHRALQLLDEVLHTMPIADPQPLD
B2: SMAD4: QM (protein)
parent chain: B1 parent chain
B3: SMAD4: OSMI-1 (protein)
parent chain: B1 parent chain
B4: SMAD4: T63V (protein)
parent chain: B1 parent chain
B5: SMAD4: thiamet-G (protein)
parent chain: B1 parent chain

What was measured:
[1] = immunoblot of endogenous SMAD4, A549; conditions: control: mock / control siRNA / DMSO / 5 mM glucose
[2] = anti-FLAG IP, anti-phospho-threonine blot, HEK293, EGF; conditions: glycan gained; control: no OGT overexpression
[3] = denaturing anti-FLAG IP, HA-Ub blot, HEK293, MG132; conditions: glycan lost; control: FLAG-SMAD4 WT
[4] = CHX chase, immunoblot, A549

Row | Protein | expression_or_secretion ([1]; glycan gained) | other: polyubiquitination [3] | other results
1 | B1 | increases |  | other: threonine phosphorylation [2]: decreases
2 | B2 |  | increases | 
3 | B3 |  |  | expression_or_secretion ([1]; glycan lost): decreases
4 | B4 |  | increases | degradation_or_half_life ([4]; glycan lost, control: FLAG-SMAD4 WT): decreases
5 | B5 | increases |  | degradation_or_half_life ([4]; glycan gained, control: untreated (endogenous SMAD4)): increases
